Values quoted from earlier work as cited in paper PMC4976356, “Structural insight into β-Clamp and its interaction with DNA Ligase in Helicobacter pylori” (Scientific Reports, 2016).

Tested on: Ecβ-clamp

B1: ligase from E. coli: E. coli DNA ligase examined for interaction with Ecβ-clamp (ref 10) (protein, UniProt P15042 1-671, looked up)
DNA ligase: MESIEQQLTELRTTLRHHEYLYHVMDAPEIPDAEYDRLMRELRELETKHPELITPDSPTQRVGAAPLAAFSQIRHEVPMLSLDNVFDEESFLAFNKRVQDRLKNNEKVTWCCELKLDGLAVSILYENGVLVSAATRGDGTTGEDITSNVRTIRAIPLKLHGENIPARLEVRGEVFLPQAGFEKINEDARRTGGKVFANPRNAAAGSLRQLDPRITAKRPLTFFCYGVGVLEGGELPDTHLGRLLQFKKWGLPVSDRVTLCESAEEVLAFYHKVEEDRPTLGFDIDGVVIKVNSLAQQEQLGFVARAPRWAVAFKFPAQEQMTFVRDVEFQVGRTGAITPVARLEPVHVAGVLVSNATLHNADEIERLGLRIGDKVVIRRAGDVIPQVVNVVLSERPEDTREVVFPTHCPVCGSDVERVEGEAVARCTGGLICGAQRKESLKHFVSRRAMDVDGMGDKIIDQLVEKEYVHTPADLFKLTAGKLTGLERMGPKSAQNVVNALEKAKETTFARFLYALGIREVGEATAAGLAAYFGTLEALEAASIEELQKVPDVGIVVASHVHNFFAEESNRNVISELLAEGVHWPAPIVINAEEIDSPFAGKTVVLTGSLSQMSRDDAKARLVELGAKVAGSVSKKTDLVIAGEAAGSKLAKAQELGIEVIDEAEMLRLLGS
**Q.** For B1, which “interaction with E. coli β-clamp (in words)” value is on record?
**A.** interacts with its β-clamp
